B1: AB3 P1597H: domain 11 AB3 + FG loop P1597H (protein)
chain: MKSNEHDDCQVTNPSTGHLFDLSSLSGRAGFTAAYSKSGVVYMSICGENENCPPGVGACFGQTRISVGKANKRLRYVDQVLQLVYKDGSHCPSKSGLSYKSVISFVCRPEAGPTNRPMLISLDKQTCTLFFSWHTPLACEQATECSV
B2: AB3 Q1569R P1597K S1602H G1603K: domain 11 AB3 + Q1569R, P1597K, S1602H, G1603K (protein)
chain: MKSNEHDDCQVTNPSTGHLFDLSSLSGRAGFTAAYSKSGVVYMSICGENENCPPGVGACFGRTRISVGKANKRLRYVDQVLQLVYKDGSKCPSKHKLSYKSVISFVCRPEAGPTNRPMLISLDKQTCTLFFSWHTPLACEQATECSV
B3: AB5 P1597H: domain 11 AB5 + P1597H (protein)
chain: MKSNEHDDCQVTNPSTGHLFDLSSLSGRAGFTAAYAKGWGVYMSICGENENCPPGVGACFGQTRISVGKANKRLRYVDQVLQLVYKDGSHCPSKSGLSYKSVISFVCRPEAGPTNRPMLISLDKQTCTLFFSWHTPLACEQATECSV
B4: AB5 P1597K: domain 11 AB5 + P1597K (protein)
chain: MKSNEHDDCQVTNPSTGHLFDLSSLSGRAGFTAAYAKGWGVYMSICGENENCPPGVGACFGQTRISVGKANKRLRYVDQVLQLVYKDGSKCPSKSGLSYKSVISFVCRPEAGPTNRPMLISLDKQTCTLFFSWHTPLACEQATECSV
B5: AB3 Q1569R P1597H S1602H: domain 11 AB3 + Q1569R, P1597H, S1602H (protein)
chain: MKSNEHDDCQVTNPSTGHLFDLSSLSGRAGFTAAYSKSGVVYMSICGENENCPPGVGACFGRTRISVGKANKRLRYVDQVLQLVYKDGSHCPSKHGLSYKSVISFVCRPEAGPTNRPMLISLDKQTCTLFFSWHTPLACEQATECSV
B6: AB3 Q1569R P1597K: domain 11 AB3 + Q1569R, P1597K (protein)
chain: MKSNEHDDCQVTNPSTGHLFDLSSLSGRAGFTAAYSKSGVVYMSICGENENCPPGVGACFGRTRISVGKANKRLRYVDQVLQLVYKDGSKCPSKSGLSYKSVISFVCRPEAGPTNRPMLISLDKQTCTLFFSWHTPLACEQATECSV
B7: AB5 P1597L: domain 11 AB5 + P1597L (protein)
chain: MKSNEHDDCQVTNPSTGHLFDLSSLSGRAGFTAAYAKGWGVYMSICGENENCPPGVGACFGQTRISVGKANKRLRYVDQVLQLVYKDGSLCPSKSGLSYKSVISFVCRPEAGPTNRPMLISLDKQTCTLFFSWHTPLACEQATECSV
B8: AB3 Q1569R P1597K S1602H: domain 11 AB3 + Q1569R, P1597K, S1602H (protein)
chain: MKSNEHDDCQVTNPSTGHLFDLSSLSGRAGFTAAYSKSGVVYMSICGENENCPPGVGACFGRTRISVGKANKRLRYVDQVLQLVYKDGSKCPSKHGLSYKSVISFVCRPEAGPTNRPMLISLDKQTCTLFFSWHTPLACEQATECSV
B9: AB3 P1597H K1631W: domain 11 AB3 + P1597H, K1631W (protein)
chain: MKSNEHDDCQVTNPSTGHLFDLSSLSGRAGFTAAYSKSGVVYMSICGENENCPPGVGACFGQTRISVGKANKRLRYVDQVLQLVYKDGSHCPSKSGLSYKSVISFVCRPEAGPTNRPMLISLDWQTCTLFFSWHTPLACEQATECSV
B10: AB3 P1597K S1602H: domain 11 AB3 + P1597K, S1602H (protein)
chain: MKSNEHDDCQVTNPSTGHLFDLSSLSGRAGFTAAYSKSGVVYMSICGENENCPPGVGACFGQTRISVGKANKRLRYVDQVLQLVYKDGSKCPSKHGLSYKSVISFVCRPEAGPTNRPMLISLDKQTCTLFFSWHTPLACEQATECSV
B11: AB3 P1597H HI^23D: domain 11 AB3 + P1597H + HI loop of clone 23D (HFQS) (protein)
chain: MKSNEHDDCQVTNPSTGHLFDLSSLSGRAGFTAAYSKSGVVYMSICGENENCPPGVGACFGQTRISVGKANKRLRYVDQVLQLVYKDGSHCPSKSGLSYKSVISFVCRPEAGPTNRPMLISLHFQSCTLFFSWHTPLACEQATECSV
B12: AB3 Q1569R: domain 11 AB3 + CD loop Q1569R (protein)
chain: MKSNEHDDCQVTNPSTGHLFDLSSLSGRAGFTAAYSKSGVVYMSICGENENCPPGVGACFGRTRISVGKANKRLRYVDQVLQLVYKDGSPCPSKSGLSYKSVISFVCRPEAGPTNRPMLISLDKQTCTLFFSWHTPLACEQATECSV
B13: AB3 P1597K: domain 11 AB3 + FG loop P1597K (protein)
chain: MKSNEHDDCQVTNPSTGHLFDLSSLSGRAGFTAAYSKSGVVYMSICGENENCPPGVGACFGQTRISVGKANKRLRYVDQVLQLVYKDGSKCPSKSGLSYKSVISFVCRPEAGPTNRPMLISLDKQTCTLFFSWHTPLACEQATECSV
B14: AB5 P1597A: domain 11 AB5 + P1597A (protein)
chain: MKSNEHDDCQVTNPSTGHLFDLSSLSGRAGFTAAYAKGWGVYMSICGENENCPPGVGACFGQTRISVGKANKRLRYVDQVLQLVYKDGSACPSKSGLSYKSVISFVCRPEAGPTNRPMLISLDKQTCTLFFSWHTPLACEQATECSV
B15: AB5 Q1569R: domain 11 AB5 + CD loop Q1569R (protein)
chain: MKSNEHDDCQVTNPSTGHLFDLSSLSGRAGFTAAYAKGWGVYMSICGENENCPPGVGACFGRTRISVGKANKRLRYVDQVLQLVYKDGSPCPSKSGLSYKSVISFVCRPEAGPTNRPMLISLDKQTCTLFFSWHTPLACEQATECSV
B16: AB5 P1597N: domain 11 AB5 + P1597N (protein)
chain: MKSNEHDDCQVTNPSTGHLFDLSSLSGRAGFTAAYAKGWGVYMSICGENENCPPGVGACFGQTRISVGKANKRLRYVDQVLQLVYKDGSNCPSKSGLSYKSVISFVCRPEAGPTNRPMLISLDKQTCTLFFSWHTPLACEQATECSV
B17: AB3 Q1569R P1597H: domain 11 AB3 + Q1569R, P1597H (protein)
chain: MKSNEHDDCQVTNPSTGHLFDLSSLSGRAGFTAAYSKSGVVYMSICGENENCPPGVGACFGRTRISVGKANKRLRYVDQVLQLVYKDGSHCPSKSGLSYKSVISFVCRPEAGPTNRPMLISLDKQTCTLFFSWHTPLACEQATECSV

Target: IGF2 (Homo sapiens, UniProt P01344)
Sequence (P01344 25-91): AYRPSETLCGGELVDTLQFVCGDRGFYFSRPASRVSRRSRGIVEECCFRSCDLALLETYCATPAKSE
Experiment: SPR (Biacore T200) of recombinant IGF2R domain 11 mutants on immobilised biotinylated IGF2
Type: binding
Parameters: purchased GroPep
Text: Surface plasmon resonance (SPR) binding analysis of recombinant M6P/IGF2R domain 11 mutants interaction with IGF2. Kon indicates association (on) rate; koff, dissociation (off) rate; RU, response units. Binding to IGF2 assessed with BIAcore T200 using purified biotinylated IGF2 and IGF1 on a streptavidin biosensor chip. Recombinant proteins were expressed either in E. coli and/or P. pastoris. All the mutants in the FG and CD loops are on the domain 11^AB5 background for the AB loop unless otherwise stated. All experiments were carried out at 25° C. in HBS-EP buffer (pH 7.4), were repeated 2-5 times on two independent BIAcore chips. nd=not determined. Data for KD expressed as mean of each experiment, and means of kon and koff are shown.
Measurements were carried out at 25° C. in HBS-EP buffer (pH 7.4) (nd=not determined, np=no protein). Data for KD expressed as mean of each experiment, and means of kon and koff are shown.
Measurements were carried out at 25° C. in MES-EP buffer, 20 mM MES pH 6.5, 150 mM NaCl, 3 mM EDTA, and 0.005% (v/v) surfactant P20). Data for KD expressed as mean of each experiment, and means of kon and koff are shown.
Final kinetic analysis of mutants by SPR was conducted using a Biacore T200 biosensor at 25° C. in either HBS-EP (10 mM HEPES pH 7.4, 150 mM NaCl, 3 mM EDTA, and 0.005% (v/v) surfactant P20) or MES-EP (20 mM MES pH 6.5, 150 mM NaCl, 3 mM EDTA, and 0.005% (v/v) surfactant P20) at a flow-rate of 40 μL min^−1. […] For the analysis of the Fc-domain 11^AB5 interaction, approximately 50 RU of a biotinylated IGF2:biotinylated ubiquitin mixture (1:8 proportion) was immobilized on the CM5-streptavidin chip. This interaction was also analysed by immobilizing the Fc-domain 11^AB5 and Fc-domain 11^AB5-RHH (or Fc-domain 11^I1572A as control) by Human Antibody Capture (monoclonal mouse anti-human IgG antibody immobilised on a CM5 chip by amine coupling, GE Healthcare) with and without human IgG1 Fc fragment (Bethyl Laboratories, UK) in the control flow cell. Increasing concentrations of IGF2^1-67, proIGF2^1-104, proIGF2^1-156 and IGF1 ranging from 0.125 to 32 nM were injected. T200 BiaEvaluation software (GE Healthcare) was used to fit the resulting curves according to a 1:1 binding model. Steady state affinities were determined using the kinetic data, taking the response average at 5 seconds before injection end and for 5 seconds average. Thermodynamic data was performed across the temperature range of 10° C. to 30° C., van't Hoff and Erying plots generated and ΔH, −TΔS and ΔG values determined as previously described.

Molecule | Kinetics koff (Table 2) [s⁻¹] | Kinetics kon (Table 2) [M⁻¹ s⁻¹] | Kinetics koff (Table 3, 25° C., HBS-EP pH 7.4) [s⁻¹] | Kinetics kon (Table 3, 25° C., HBS-EP pH 7.4) [M⁻¹ s⁻¹] | Kinetics koff (Table 4, MES-EP pH 6.5) [s⁻¹] | Kinetics kon (Table 4, MES-EP pH 6.5) [M⁻¹ s⁻¹]
B1 | 0.013 | 1.06e+07 | 0.013 | 1.06e+07 | – | –
B2 | – | – | 0.0171 | 2.08e+07 | – | –
B3 | – | – | 0.0070 | 3.68e+06 | – | –
B4 | – | – | 0.0120 | 9.54e+06 | – | –
B5 | – | – | 0.010 | 1.41e+07 | 0.0064 | 1.61e+07
B6 | – | – | 0.0241 | 2e+07 | – | –
B7 | – | – | 0.0150 | 4.18e+06 | – | –
B8 | – | – | 0.016 | 2.01e+07 | – | –
B9 | – | – | 0.3478 | 1.97e+07 | – | –
B10 | – | – | 0.0102 | 2.74e+06 | – | –
B11 | – | – | 0.012 | – | – | –
B12 | 0.031 | 1.36e+07 | 0.031 | 1.36e+07 | – | –
B13 | – | – | 0.0287 | 1.05e+07 | – | –
B14 | – | – | 0.0174 | 1.9e+06 | – | –
B15 | – | – | 0.0175 | 8.04e+06 | – | –
B16 | – | – | 0.0180 | 4.72e+06 | – | –
B17 | – | – | 0.0153 | 1.89e+07 | 0.0091 | 1.99e+07
